Patent EP2344531B1

Key:
[1] = biological target: VEGF (vascular endothelial growth factor) (UniProt P15692); assay: BioVeris ECL competition assay with a labeled competitor; legend: +++ = IC50 about 2 - 10 µM
[2] = biological target: TGFβ1 (transforming growth factor β1) (UniProt P01137); assay: BioVeris ECL competition assay with a labeled competitor; legend: ++ = IC50 about 10 - 50 µM
[3] = biological target: VEGF (vascular endothelial growth factor) (UniProt P15692); assay: BioVeris ECL competition assay with a labeled competitor; negative control
[4] = biological target: FGF-5 (fibroblast growth factor 5) (UniProt P12034); assay: as above
FGF-5 (fibroblast growth factor 5), sequence (P12034 18-268 limits assumed): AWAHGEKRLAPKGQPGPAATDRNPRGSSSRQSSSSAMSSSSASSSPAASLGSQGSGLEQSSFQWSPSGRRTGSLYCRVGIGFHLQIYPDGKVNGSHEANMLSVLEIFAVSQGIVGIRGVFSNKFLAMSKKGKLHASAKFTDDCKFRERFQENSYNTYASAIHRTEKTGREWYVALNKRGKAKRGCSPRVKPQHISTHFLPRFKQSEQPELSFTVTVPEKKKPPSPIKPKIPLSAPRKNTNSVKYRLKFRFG

VEGF (vascular endothelial growth factor), sequence (P15692 other isoform, or with tags, fused parts or gaps limits assumed): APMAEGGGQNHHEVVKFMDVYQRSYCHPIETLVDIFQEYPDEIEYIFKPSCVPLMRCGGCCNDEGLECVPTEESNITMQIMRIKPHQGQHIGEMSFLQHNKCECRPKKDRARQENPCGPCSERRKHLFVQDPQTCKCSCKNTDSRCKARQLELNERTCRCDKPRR
TGFβ1 (transforming growth factor β1), sequence (P01137 279-390 limits assumed): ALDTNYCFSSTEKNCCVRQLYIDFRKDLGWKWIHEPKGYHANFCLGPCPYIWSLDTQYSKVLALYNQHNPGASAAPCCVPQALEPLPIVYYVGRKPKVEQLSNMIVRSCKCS

With “BBIt with the VEGF-binding peptide VegKD (KYDLYWW) in the chymotrypsin loop (designed binder)” the IC50 [1] was 2 to 10 µM.

“BBIt-VEGK (BBIt with the VEGF-binding peptide VegK KYYLYWW in the chymotrypsin loop) (designed binder)” was tested, and the IC50 [1] was 2 to 10 µM.

“BBIt-VEGT (BBIt with the VEGF-binding peptide VegT TLWKSYW in the chymotrypsin loop) (designed binder)” gave an IC50 [1] of 2 to 10 µM.

“PEN3-Q-BBIt-TGF-A40L-F50N (BBIt-A40L-F50N with the TGFβ1 binding peptide PEN3 PENINVLP) (designed binder)” showed an IC50 [2] of 10 to 50 µM.

“WTQ-BBIt-Q-TGF (BBIt-A13I-L29P-F50T-V52A with the TGFβ1 binding peptide WTQ WTQHIHN) (designed binder)” showed an IC50 [2] of 10 to 50 µM.

“sBBI (wild-type soybean Bowman-Birk Inhibitor) (from UniProt P01055 40-110)” was tested, and the IC50 [3] was > 250 µM and the IC50 [4] was > 250 µM.
